PMC9515098, “Structural basis for the activity regulation of a potassium channel AKT1 from Arabidopsis” (Nature Communications, 2022)

Key:
[1] = target: the molecule itself; test: cryo-EM structure; cryo-EM, 2D classification only (preliminary analysis); no map or model reported
[2] = target: the molecule itself; test: cryo-EM structure; single-particle cryo-EM of the purified channel from Sf9 cells; 25 mM Tris-HCl pH 7.4, 150 mM KCl, 0.1% digitonin
[3] = target: the molecule itself; test: cryo-EM structure; single-particle cryo-EM of AKT1 co-expressed with CIPK23 and CBL1 in HEK293 cells; 0.08% digitonin, 0.5 mM CaCl2, 5 mM MnCl2, 1 mM ATP, 1 mM sodium orthovanadate; map at about 11 Å

B1: AKT1_(16-857), AKT1 lacking the N-terminal 15 residues (domain or fragment)
chain: not shown
notes: source: purified
- binding result [1]: binds

B2: Arabidopsis thaliana potassium channel AKT1, wild type (Flag-tagged, from Sf9 cells) (natural protein)
chain: not shown
notes: Potassium channel AKT1, Arabidopsis thaliana, UniProt Q38998; Homotetramer in the cryo-EM structure; also called WT AKT1; AKT1 WT
- stoichiometry N [2]: 4

B3: AKT1 Asp379Ala, constitutively-active variant (Flag-tagged, from Sf9 cells) (natural protein)
chain: not shown
notes: Potassium channel AKT1, Arabidopsis thaliana, UniProt Q38998, with the point mutation Asp379Ala; Two cryo-EM classes (4-fold and 2-fold symmetric cytoplasmic domain); also called AKT1-D379A; constitutively-active mutant; source: Sf9 insect cells (Bac-to-bac baculovirus), purified by the same protocol as AKT1
- binding result [2]: binds

B4: Phosphorylated AKT1 (AKT1 co-expressed with CIPK23 and CBL1 in HEK293 cells) (natural protein)
chain: not shown
modifications: phosphoserine at Ser26 and Ser338 (found by mass spectrometry after co-expression with CIPK23 and CBL1)
notes: Potassium channel AKT1, Arabidopsis thaliana, UniProt Q38998
- binding result [3]: binds
